Results published in paper PMC2995063.

Assays:
Assay in all cases: protection of ribosome-bound eEF2 from [14C]ADP-ribosylation by diphtheria toxin
[1] = molecular target: Salt washed yeast 80S ribosomes with ribosomal protein L3 K241A/R244A (yeast (S. cerevisiae)) (UniProt P14126)
[2] = molecular target: Salt washed yeast 80S ribosomes with ribosomal protein L3 R247A (yeast (S. cerevisiae)) (UniProt P14126)
[3] = molecular target: Salt washed yeast 80S ribosomes with ribosomal protein L3 K236A (yeast (S. cerevisiae)) (UniProt P14126)
[4] = molecular target: Salt washed yeast 80S ribosomes with ribosomal protein L3 R232A (yeast (S. cerevisiae)) (UniProt P14126)
[5] = molecular target: Salt washed yeast 80S ribosomes with ribosomal protein L3 K237A (yeast (S. cerevisiae)) (UniProt P14126)
[6] = molecular target: Salt washed yeast 80S ribosomes with wild-type ribosomal protein L3 (yeast (S. cerevisiae)) (UniProt P14126)
[7] = molecular target: Salt washed yeast 80S ribosomes with ribosomal protein L3 K236A/R247A (yeast (S. cerevisiae)) (UniProt P14126)
[8] = molecular target: Salt washed yeast 80S ribosomes with ribosomal protein L3 K236A/K237A (yeast (S. cerevisiae)) (UniProt P14126)

Q: With “Eukaryotic elongation factor 2 (eEF2), 6xHis-tagged (from UniProt P32324 1-842) (natural protein)” as the substance, how does the Kd [1] read?
A: Its Kd is 0.229 µM.

Q: And the Kd [2]?
A: Its Kd is 0.0466 µM.

Q: What about the Kd [3] of the same substance?
A: The Kd was 0.312 µM.

Q: What about the Kd [4] of the same substance?
A: Its Kd is 0.341 µM.

Q: And the Kd [5]?
A: The Kd was 0.342 µM.

Q: And the Kd [6]?
A: The Kd was 0.383 µM.

Q: And the Kd [7]?
A: Its Kd is 0.11 µM.

Q: And the Kd [8]?
A: The Kd was 0.084 µM.
